{"source": "paper PMC5007788", "about": "“Heat Shock Factor 1 Is a Substrate for p38 Mitogen-Activated Protein Kinases” (Molecular and Cellular Biology, 2016)", "key": {"[1]": {"molecular_target": "T1, Heat shock factor 1 (HSF1), endogenous in MDA-MB-231 cells (human (endogenous in MDA-MB-231)), Q00613", "T1 chain": "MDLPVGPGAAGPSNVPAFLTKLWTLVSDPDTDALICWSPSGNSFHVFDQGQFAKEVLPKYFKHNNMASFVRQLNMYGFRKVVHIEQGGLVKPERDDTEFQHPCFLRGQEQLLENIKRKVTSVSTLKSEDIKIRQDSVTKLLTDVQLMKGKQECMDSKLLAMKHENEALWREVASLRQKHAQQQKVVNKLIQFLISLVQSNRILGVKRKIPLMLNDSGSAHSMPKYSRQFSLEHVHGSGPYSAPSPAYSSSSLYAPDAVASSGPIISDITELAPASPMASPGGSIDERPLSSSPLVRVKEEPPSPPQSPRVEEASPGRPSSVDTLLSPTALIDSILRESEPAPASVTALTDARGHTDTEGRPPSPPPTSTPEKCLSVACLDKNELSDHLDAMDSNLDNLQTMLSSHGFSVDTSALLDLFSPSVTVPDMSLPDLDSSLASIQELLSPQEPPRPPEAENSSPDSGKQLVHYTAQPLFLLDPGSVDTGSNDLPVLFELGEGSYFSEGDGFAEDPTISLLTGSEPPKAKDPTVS", "assay": "cross-linking; MDA-MB-231 cells treated with 20 uM PEITC for 3 h, fixed with 0.4% (wt/vol) paraformaldehyde in PBS, quenched with glycine; nuclear and cytoplasmic fractions; SDS-PAGE (10% gel), blot with anti-HSF1", "conditions": "remark: other sources report otherwise"}, "[2]": {"molecular_target": "the molecule itself", "assay": "gel electrophoresis (NuPAGE NoVex Bis-Tris 10% gel); purified recombinant hexahistidine-tagged HSF1 (WT and S326A) run on NuPAGE; dimeric and trimeric species formed spontaneously beside the major band"}}, "note": "Values joined by “and” are separate entries in the source; they are usually repeats but may differ in a detail not shown here. Equal values may be shown once.", "data": [{"binder": "Heat shock factor 1 (HSF1), endogenous in MDA-MB-231 cells, Q00613 1-529 (natural protein) MDLPVGPGAAGPSNVPAFLTKLWTLVSDPDTDALICWSPSGNSFHVFDQGQFAKEVLPKYFKHNNMASFVRQLNMYGFRKVVHIEQGGLVKPERDDTEFQHPCFLRGQEQLLENIKRKVTSVSTLKSEDIKIRQDSVTKLLTDVQLMKGKQECMDSKLLAMKHENEALWREVASLRQKHAQQQKVVNKLIQFLISLVQSNRILGVKRKIPLMLNDSGSAHSMPKYSRQFSLEHVHGSGPYSAPSPAYSSSSLYAPDAVASSGPIISDITELAPASPMASPGGSIDERPLSSSPLVRVKEEPPSPPQSPRVEEASPGRPSSVDTLLSPTALIDSILRESEPAPASVTALTDARGHTDTEGRPPSPPPTSTPEKCLSVACLDKNELSDHLDAMDSNLDNLQTMLSSHGFSVDTSALLDLFSPSVTVPDMSLPDLDSSLASIQELLSPQEPPRPPEAENSSPDSGKQLVHYTAQPLFLLDPGSVDTGSNDLPVLFELGEGSYFSEGDGFAEDPTISLLTGSEPPKAKDPTVS", "values": [{"measurement": "stoichiometry N", "setting": "[1]", "result": "2 and 3"}]}, {"binder": "Recombinant hexahistidine-tagged HSF1 wild-type (natural protein, human, UniProt Q00613 1-529, looked up, subcloned into pet15b (NdeI, XhoI); The vector pet15b is named; also called His-HSF1; HSF1 WT; source: E. coli BL21(DE3)pLysS, purified (nickel agarose resin, dialysis)) MDLPVGPGAAGPSNVPAFLTKLWTLVSDPDTDALICWSPSGNSFHVFDQGQFAKEVLPKYFKHNNMASFVRQLNMYGFRKVVHIEQGGLVKPERDDTEFQHPCFLRGQEQLLENIKRKVTSVSTLKSEDIKIRQDSVTKLLTDVQLMKGKQECMDSKLLAMKHENEALWREVASLRQKHAQQQKVVNKLIQFLISLVQSNRILGVKRKIPLMLNDSGSAHSMPKYSRQFSLEHVHGSGPYSAPSPAYSSSSLYAPDAVASSGPIISDITELAPASPMASPGGSIDERPLSSSPLVRVKEEPPSPPQSPRVEEASPGRPSSVDTLLSPTALIDSILRESEPAPASVTALTDARGHTDTEGRPPSPPPTSTPEKCLSVACLDKNELSDHLDAMDSNLDNLQTMLSSHGFSVDTSALLDLFSPSVTVPDMSLPDLDSSLASIQELLSPQELPRPPEAENSSPDSGKQLVHYTAQPLFLLDPGSVDTGSNDLPVLFELGEGSYFSEGDGFAEDPTISLLTGSEPPKAKDPTVS", "values": [{"measurement": "stoichiometry N", "setting": "[2]", "result": "2 and 3"}]}, {"binder": "Recombinant hexahistidine-tagged mutant S326A HSF1 (natural protein, human, UniProt Q00613 1-529, looked up, Heat shock factor 1, human, full-length cDNA from Addgene plasmid 32537 (P to L at position 448) in pet15b, with S326A made by site-directed mutagenesis; Made from the pet15b plasmid of m3; also called S326A mutant HSF1; HSF1 S326A; source: E. coli BL21(DE3)pLysS, purified (nickel agarose resin, dialysis)) MDLPVGPGAAGPSNVPAFLTKLWTLVSDPDTDALICWSPSGNSFHVFDQGQFAKEVLPKYFKHNNMASFVRQLNMYGFRKVVHIEQGGLVKPERDDTEFQHPCFLRGQEQLLENIKRKVTSVSTLKSEDIKIRQDSVTKLLTDVQLMKGKQECMDSKLLAMKHENEALWREVASLRQKHAQQQKVVNKLIQFLISLVQSNRILGVKRKIPLMLNDSGSAHSMPKYSRQFSLEHVHGSGPYSAPSPAYSSSSLYAPDAVASSGPIISDITELAPASPMASPGGSIDERPLSSSPLVRVKEEPPSPPQSPRVEEASPGRPSSVDTLLAPTALIDSILRESEPAPASVTALTDARGHTDTEGRPPSPPPTSTPEKCLSVACLDKNELSDHLDAMDSNLDNLQTMLSSHGFSVDTSALLDLFSPSVTVPDMSLPDLDSSLASIQELLSPQELPRPPEAENSSPDSGKQLVHYTAQPLFLLDPGSVDTGSNDLPVLFELGEGSYFSEGDGFAEDPTISLLTGSEPPKAKDPTVS", "values": [{"measurement": "stoichiometry N", "setting": "[2]", "result": "2 and 3"}]}]}
